Patent US12053511B2, “Cystatin C and Cystatin 9 to treat gut inflammation caused by thermal injury” (priority 2016, dated 2024)

Key:
[1] = system: Pseudomonas aeruginosa (isolate from burn patient wound); assay: Viability and virulence of pathogenic bacterial strains; format: cell-based; conditions: 50 pg dose
[2] = system: monocyte-derived macrophages (MDM) infected with NDM-1-producing Kp; assay: Cytokine secretion from NDM-1 Kp-infected MDM; format: cell-based, human; conditions: rCSTC 50 pg, rCST9 25 or 50 pg, individually and in combination; vs Kp-infected MDM
EC 083:H1 and flagellin = assay: Mouse model of infection and thermal injury, survival; format: in vivo, Balb/c mice; conditions: i.p. 500 pg rCST9 and/or 50 pg rCSTC; 1000 ng flagellin + 1×10^7 CFU EC 083:H1 i.p.; 30% TBSA burn; observed 10 days
Description: (§1) Mice were intraperitoneally (i.p.) challenged with 1×10^7 CFU of an intestinal isolate E. coli (EC) and 1000 ng of flagellin then treated i.p. with 500 pg rCST9 and/or 50 pg rCSTC followed by a 30% full-thickness thermal injury (30% TBSA). […] Additional groups of infected, rCST treated and/or thermally injured mice were euthanized at 24 and 48 h post-thermal injury to collect serum and harvest intestinal samples. Cytokines were quantified in the serum and analysis of the gut microbiome.
Female Balb/c mice (n=6 mice/group), weighing 19-21 grams (Jackson Laboratories), were housed in a facility approved by the Association for Assessment and Accreditation for Laboratory Animal Care (AAALAC). Mice were allowed to adjust to their environment for at least seven days prior to the study and given access to food and water throughout the entire study. All animal procedures were approved by University of Texas Medical Branch IACUC and performed humanely with minimal suffering. Briefly, mice were shaved dorsally the morning of experimentation as previously described (8). The mice were given an i.p. challenge of 1000 ng of flagellin and 1×10^7 CFU/mouse of EC 083:H1 and then treated with 500 pg of rCST9 and/or 50 pg of rCSTC. Immediately following treatment, mice were anesthetized with pentobarbital (Nembutal) and subjected to a 30% total body surface area (TBSA) burn injury. […]

E. coli O157:H7 (ATCC) = assay: Viability and virulence of pathogenic bacterial strains; format: cell-based; conditions: 50 pg dose
IL-8 = IL-8 secretion from intestinal epithelial cells exposed to E. coli 083:H1 and/or flagellin; format: cell-based; conditions: after exposure to enteric E. coli 083:H1 and/or flagellin
Excerpt: It is known that intestinal leakage of intestinal bacteria and their product occurs following burn injury likely contributing to systemic infection and sepsis.

[3] = system: Salmonella typhimurium (ATCC); assay: Viability and virulence of pathogenic bacterial strains; format: cell-based; conditions: 50 pg dose
[4] = system: Burkholderia thialandensis (ATCC); assay: as above; format: cell-based; conditions: 50 pg dose
[5] = system: Klebsellia pneumoniae (isolate from burn patient lung); assay: as above; format: cell-based; conditions: 50 pg dose
[6] = system: human monocyte-derived macrophage (MDM); assay: Macrophage killing of pathogens; format: cell-based; conditions: same five pathogens
gut microbiome = assay: Gut microbiome by 16S next generation sequencing, infection and thermal injury model; format: in vivo, Balb/c mice
Description: as §1
Gut samples were harvested at 24 and 48 h from the same 4 mouse groups euthanized to collect sera as described above. As we reported in a previous publication (8), briefly, approximately 3 mm^3 pieces of the intestine (close to the cecum) were sterilely harvested from each mouse. For gut microbiome analysis, DNA from intestinal samples was extracted from samples lysed in MagNA Pure DNA Tissue Lysis Buffer followed by automated extraction on a MagNA Pure 96 platform (Roche). The isolated DNA was amplified using a panel of five “universal” primer pairs (Ion Xpress Barcodes) that created overlapping 400 bp DNA fragments covering 95% of the bacterial 16S rDNA. Barcoded amplimers were mixed at equimolar ratios and then subjected to Ion Torrent NGS (Thermo Scientific). Average read length was >300 bases with sequence generated from both strands. Reads were filtered and binned according to Ion Xpress barcode with Ion Torrent Suite software (v 4.0.2). Sequencing reads were then further processed using Galaxy software where each barcode was trimmed to remove the primer sequence. The 16S sequences were compared to the SILVA database using bowtie 2 software to yield species or genera level matches to return the hit-rate. Where multiple calls to the same genera were made the number of hits were added accordingly. Hit rates were converted to percentage of total to give an overall ratio of the sequenced microbiome.

[7] = individual treatment, 24 and 48 h post-burn

| Molecule | viability and virulence [1] | cytokine secretion from infected MDM [2] | survival (EC 083:H1 and flagellin) | viability and virulence (E. coli O157:H7 (ATCC)) | IL-8 secretion from intestinal epithelial cells (IL-8) | viability and virulence [3] | viability and virulence [4] | viability and virulence [5] | MDM killing of pathogens [6] | gut microbiome profile (gut microbiome; [7]) | Bacteroidales S24-7 in gut microbiome (gut microbiome; 24 h post-burn) | Lachnospiraceae family in gut microbiome (gut microbiome; 24 h post-burn) | gut microbiome profile (gut microbiome; 48 h post-burn) |
| --- | --- | --- | --- | --- | --- | --- | --- | --- | --- | --- | --- | --- | --- |
| rCST9: human recombinant cystatin 9, cysteine proteinase inhibitor; purchased from American Research Products, Inc. (protein, UniProt Q5W186 29-159, looked up) Cystatin-9: WCSEEEMGGNNKIVQDPMFLATVEFALNTFNVQSKEEHAYRLLRVLSSWREDSMDRKWRGKMVFSMNLQLRQTVCRKFEDDIDNCPFQESLELNNVRQGISFPQVHSCGCCMGCGVGTGAADKAIPRDKGK | retarded the viability and virulence | restrained cytokine secretion | did not improve survival | retarded the viability and virulence | decreased IL-8 secretion | retarded the viability and virulence | retarded the viability and virulence | retarded the viability and virulence | induced human monocyte-derived macrophage (MDM) killing | preserved the gut microbiome that was equivalent to sham controls |  |  |  |
| rCSTC: human recombinant cystatin C (CST3), cysteine proteinase inhibitor; purchased from R&D Systems (protein, UniProt P01034 27-146, looked up) Cystatin-C: SSPGKPPRLVGGPMDASVEEEGVRRALDFAVGEYNKASNDMYHSRALQVVRARKQIVAGVNYFLDVELGRTTCTKTQPNLDNCPFHDQPHLKRKAFCSFQIYAVPWQGTMTLSKSTCQDA |  | restrained cytokine secretion |  |  | decreased IL-8 secretion |  |  |  |  | preserved the gut microbiome that was equivalent to sham controls | noticeable but moderate increase | proportionate decrease | nearly equivalent to sham controls |
